Measured values from patent US20260308536A1, “NOVEL URICASE VARIANTS AND METHODS OF USE THEREOF” (priority 2023, published 2026).
Positions count from the first letter of the chain named. Numbers in names are those of the source.

How the values were obtained:
[1] = substrate: O=c1[nH]c(=O)c2[nH]c(=O)[nH]c2[nH]1; assay: purified protein, by the assay type; type: biochemical, chimeric pig-baboon; conditions: other: role: substrate
Procedure: Variants 1 (dURC1) and 3 (dURC3) were identified as possible lead candidates. Besides the mutations according to the library design, i.e., the designed mutations of F75Q; K79N; T83Q; E90H; F96H; I100E; Y105D; V119K; F172Y; L260N; and I262T, dURC3 comprised an off-position amino acid mutation K76N. An off-position amino acid mutation is defined as having a non-designed amino acid at a non-target site. […] Specifically, in the dURC1 backbone, the following mutations were tested separately: L154T; K155D; K155N; L157H; L157T; T159E; T159Q; and S162D; and in the dURC3 backbone, the K155N mutation was tested. […] The characteristics, including yield, activity, melting temperature measured by DSF, temperature at which 50% of normal activity was lost after heating measured by heat stress activity assay, Michaelis-Menten kinetics parameters, of variants 1, 2, 3, and 4 (i.e., dURC1, dURC2, dURC3 and dURC4), as well as the wild type chimeric pig-baboon uricase, are summarized in Table 2. The amino acid sequences of dURC1, dURC2, dURC3 and dURC4 are shown as SEQ ID NO: 1, 2, 3, and 4, respectively.
(§1) The activity of the purified enzymes was quantified by Michaelis Menten kinetic analysis, using the solution phase microplate assay across a range of substrate concentrations (FIG. 4B).

[2] = substrate: O=c1[nH]c(=O)c2[nH]c(=O)[nH]c2[nH]1; assay: purified protein, by the assay type; type: biochemical, chimeric pig-baboon; conditions: other: role: substrate; remark: listed apart in the source
[3] = substrate: O=c1[nH]c(=O)c2[nH]c(=O)[nH]c2[nH]1; assay: Michaelis-Menten kinetics, wild type Arthrobacter globiformis uricase; type: biochemical; conditions: other: role: substrate; non-PEGylated; Table 8B; pH 10.5
Description: Non-PEGylated deimmunized Arthrobacter globiformis uricase variants were created by introducing additional amino acid substitutions into the R49S variant Arthrobacter globiformis uricase of SEQ ID NO:6 disclosed in Nyborg et al., PLOS One, 2016, DOI: 10.1371/journal.pone.0167935. For ease of description, the R49S variant Arthrobacter globiformis uricase of SEQ ID NO:6 is referred to as the wild type Arthrobacter globiformis uricase herein, as it serves as the enzyme being mutated to arrive at the variants. The monomeric form of the wild type Arthrobacter globiformis uricase comprises the amino acid sequence of SEQ ID NO:6, where methionine is residue #1. The specified mutations in the Arthrobacter globiformis uricase variants of this example are indexed to methionine as residue #1, as in SEQ ID NO:6. […]
Select Arthrobacter globiformis uricase variants MedU_1B7, MedU_5B8, MedU_1C2, MedU_5C9, MedU_5E6, MedU_5E9, and MedU_IF1 were subject to further characterization by comparing their expression yields, Michaelis-Menten kinetics parameters, and thermostability measured by temperatures at which 50% of normal activity was lost determined by heat stress activity assay, with those of the wild type Arthrobacter globiformis uricase. The expression yields were determined as described above in the “Methods” section. […]

[4] = substrate: O=c1[nH]c(=O)c2[nH]c(=O)[nH]c2[nH]1; assay: Michaelis-Menten kinetics, MedU_1F1; type: biochemical, Arthrobacter globiformis; conditions: other: role: substrate; non-PEGylated; Table 8B; pH 10.5
Procedure: (§2) Select Arthrobacter globiformis uricase variants MedU_1B7, MedU_5B8, MedU_1C2, MedU_5C9, MedU_5E6, MedU_5E9, and MedU_IF1 were subject to further characterization by comparing their expression yields, Michaelis-Menten kinetics parameters, and thermostability measured by temperatures at which 50% of normal activity was lost determined by heat stress activity assay, with those of the wild type Arthrobacter globiformis uricase. The expression yields were determined as described above in the “Methods” section. The Michaelis-Menten kinetics parameters kcat and KM, and temperatures at which 50% of normal activity was lost (i.e., 50% thermal inactivation temperatures, referred to as TI50 (° C.)) measured by heat stress activity assay were likewise determined using the methods described in Example 1.

[5] = substrate: O=c1[nH]c(=O)c2[nH]c(=O)[nH]c2[nH]1; assay: Michaelis-Menten kinetics, MedU_5C9; type: biochemical, Arthrobacter globiformis; conditions: other: role: substrate; non-PEGylated; Table 8B; pH 10.5
Procedure: as §2

[6] = substrate: O=c1[nH]c(=O)c2[nH]c(=O)[nH]c2[nH]1; assay: Michaelis-Menten kinetics, MedU_1C2; type: biochemical, Arthrobacter globiformis; conditions: other: role: substrate; non-PEGylated; Table 8B; pH 10.5
Procedure: as §2

[7] = substrate: O=c1[nH]c(=O)c2[nH]c(=O)[nH]c2[nH]1; assay: Michaelis-Menten kinetics, MedU_5B8; type: biochemical, Arthrobacter globiformis; conditions: other: role: substrate; non-PEGylated; Table 8B; pH 10.5
Procedure: as §2

[8] = substrate: O=c1[nH]c(=O)c2[nH]c(=O)[nH]c2[nH]1; assay: Michaelis-Menten kinetics, MedU_1B7; type: biochemical, Arthrobacter globiformis; conditions: other: role: substrate; non-PEGylated; Table 8B; pH 10.5
Procedure: as §2

[9] = substrate: O=c1[nH]c(=O)c2[nH]c(=O)[nH]c2[nH]1; assay: purified protein, by the assay type; type: biochemical, chimeric pig-baboon; conditions: other: role: substrate; remark: listed apart in the source
Description: The monomeric form of the wild type chimeric pig-baboon uricase comprises the amino acid sequence of SEQ ID NO:5, where threonine is residue #1. The specified mutations in the chimeric pig-baboon uricase variants of this example are indexed to threonine as residue #1, as in SEQ ID NO:5. […] The expression vector pET-26b(+) encodes a His tag containing 6 histidine residues at the C-terminus of the inserted uricase gene.
as §1

[10] = substrate: O=c1[nH]c(=O)c2[nH]c(=O)[nH]c2[nH]1; assay: Michaelis-Menten kinetics, MedU_5E9; type: biochemical, Arthrobacter globiformis; conditions: other: role: substrate; non-PEGylated; Table 8B; pH 10.5
Procedure: as §2

[11] = non-PEGylated, pH 10.5, 25° C., Table 2
[12] = purified enzyme, non-linear regression, Table 3, pH 10.5, 25.0 °C

B1: chimeric pig-baboon uricase variant 1 (dURC1), F75Q/K79E/T83Q/E90H/F96H/I100H/Y105D/V119K/Y127H/F172Y/L260N, SEQ ID NO: 1 (Sus scrofa; … (protein)
chain: TYKKNDEVEFVRTGYGKDMIKVLHIQRDGKYHSIKEVATTVQLTLSSKKDYLHGDNSDVIPTDTIKNTVNVLAKQKGIESIEQFAVTICHHFLSSHKHVHRAQVDVEEVPWKRFEKNGKKHVHAFIHTPTGTHFCEVEQIRNGPPVIHSGIKDLKVLKTTQSGFEGFIKDQYTTLPEVKDRCFATQVYCKWRYHQGRDVDFEATWDTVRSIVLQKFAGPYDKGEYSPSVQKTLYDIQVLTLGQVPEIEDMEISLPNIHYNNIDMSKMGLINKEEVLLPLDNPYGKITGTVKRKLSSRL
notes: purified
Q: With B1 as the protein, how does the Km [1, 11] read?
A: 678 µM

Q: And the Km [1, 12]?
A: 700 ± 100 µM

B2: chimeric pig-baboon uricase variant 2 (dURC2), F75Q/K79E/T83Q/E90H/F96H/I100H/Y105D/V119K/Y127H/K155N/F172Y/L260N, SEQ ID NO: 2 (Sus scrofa; … (protein)
chain: B1 chain with K155N
notes: purified
Q: What does the source list for B2?
A: Km [1, 11]: 467 µM; Km [1, 12]: 470 ± 60 µM

B3: chimeric pig-baboon uricase variant 4 (dURC4), F75Q/K76N/K79N/T83Q/E90H/F96H/I100E/Y105D/V119K/K155N/F172Y/L260N/I262T, SEQ ID NO: 4 (Sus scrofa; … (protein)
chain: B1 chain with K76N, E79N, H100E, H127Y, K155N, I262T
notes: purified
Q: Which results are given for B3?
A: Km [1, 11]: 347 µM; Km [1, 12]: 350 ± 20 µM

B4: chimeric pig-baboon uricase variant 3 (dURC3), F75Q/K76N/K79N/T83Q/E90H/F96H/I100E/Y105D/V119K/F172Y/L260N/I262T, SEQ ID NO: 3 (Sus scrofa; … (protein)
chain: B1 chain with K76N, E79N, H100E, H127Y, I262T
notes: purified
Q: What does the source list for B4?
A: Km [2, 11]: 595 µM; Km [2, 12]: 600 ± 70 µM

B5: Arthrobacter globiformis uricase, wild type (R49S variant, referred to as wild type), SEQ ID NO: 6 (Arthrobacter globiformis; R49S) (protein)
chain: MTATAETSTGTKVVLGQNQYGKAEVRLVKVTRNTARHEIQDLNVTSQLSGDFEAAHTAGDNAHVVATDTQKNTVYAFARDGFATTEEFLLRLGKHFTEGFDWVTGGRWAAQQFFWDRINDHDHAFSRNKSEVRTAVLEISGSEQAIVAGIEGLTVLKSTGSEFHGFPRDKYTTLQETTDRILATDVSARWRYNTVEVDFDAVYASVRGLLLKAFAETHSLALQQTMYEMGRAVIETHPEIDEIKMSLPNKHHFLVDLQPFGQDNPNEVFYAADRPYGLIEATIQREGSRAD
notes: His6 (C); made in house; host or cells: E. coli
Q: With B5 as the protein, how does the Km [3] read?
A: 270 ± 80 µM

Q: What about the kcat [3] of the same protein?
A: 2.3 ± 0.2 s⁻¹

B6: Arthrobacter globiformis uricase variant MedU_1F1, A35D/A83G/L89G/V195E/Y203H/A204E/A213G/L220H/I243V/K244S/K250N, SEQ ID NO: 95 (Arthrobacter globiformis; … (protein)
chain: MTATAETSTGTKVVLGQNQYGKAEVRLVKVTRNTDRHEIQDLNVTSQLSGDFEAAHTAGDNAHVVATDTQKNTVYAFARDGFGTTEEFGLRLGKHFTEGFDWVTGGRWAAQQFFWDRINDHDHAFSRNKSEVRTAVLEISGSEQAIVAGIEGLTVLKSTGSEFHGFPRDKYTTLQETTDRILATDVSARWRYNTEEVDFDAVHESVRGLLLKGFAETHSHALQQTMYEMGRAVIETHPEIDEVSMSLPNNHHFLVDLQPFGQDNPNEVFYAADRPYGLIEATIQREGSRAD
notes: R49S backbone, 291 aa; pET-26b(+), C-terminal His6, E. coli; non-PEGylated
Q: Which Km [4] does the source give for B6 here?
A: 370 ± 60 µM

Q: And the kcat [4]?
A: 2.5 ± 0.1 s⁻¹

B7: Arthrobacter globiformis uricase variant MedU_5C9, A35D/A145H/A148S/V195D/A204D/A213G/K244S/K250N, SEQ ID NO: 144 (Arthrobacter globiformis; … (protein)
chain: B5 chain with A35D, A145H, A148S, V195D, A204D, A213G, K244S, K250N
notes: as for B6
Q: Which Km [5] does the source give for B7 here?
A: 340 ± 80 µM

Q: And the kcat [5]?
A: 2.4 ± 0.1 s⁻¹

B8: Arthrobacter globiformis uricase variant MedU_1C2, A145T/V195E/I243V/K244S/K250N/Y270H, SEQ ID NO: 80 (Arthrobacter globiformis; … (protein)
chain: B5 chain with A145T, V195E, I243V, K244S, K250N, Y270H
notes: as for B6
Q: B8 was tested. Which Km [6] did it give?
A: 500 ± 90 µM

Q: And the kcat [6]?
A: 3.4 ± 0.2 s⁻¹

B9: Arthrobacter globiformis uricase variant MedU_5B8, A35D/A83G/A145T/A148S/V195E/A204D/A213G/L220H/I243V/K244S, SEQ ID NO: 134 (Arthrobacter globiformis; … (protein)
chain: B6 chain with G89L, A145T, A148S, H203Y, E204D, N250K
notes: as for B6
Q: What does the source list for B9?
A: Km [7]: 390 ± 80 µM; kcat [7]: 3.9 ± 0.2 s⁻¹

B10: Arthrobacter globiformis uricase variant MedU_1B7, A35D/A83G/A145T/A148S/A204G/A213G/I243V/K244S, SEQ ID NO: 77 (Arthrobacter globiformis; … (protein)
chain: B5 chain with A35D, A83G, A145T, A148S, A204G, A213G, I243V, K244S
notes: as for B6
Q: How did the Km [8] turn out when B10 was run?
A: 440 ± 90 µM

Q: What about the kcat [8] of the same protein?
A: 3.8 ± 0.2 s⁻¹

B11: chimeric pig-baboon uricase, wild type, SEQ ID NO: 5 (Sus scrofa; R291K/S46T/T301S) (protein)
chain: TYKKNDEVEFVRTGYGKDMIKVLHIQRDGKYHSIKEVATTVQLTLSSKKDYLHGDNSDVIPTDTIKNTVNVLAKFKGIKSIETFAVTICEHFLSSFKHVIRAQVYVEEVPWKRFEKNGVKHVHAFIYTPTGTHFCEVEQIRNGPPVIHSGIKDLKVLKTTQSGFEGFIKDQFTTLPEVKDRCFATQVYCKWRYHQGRDVDFEATWDTVRSIVLQKFAGPYDKGEYSPSVQKTLYDIQVLTLGQVPEIEDMEISLPNIHYLNIDMSKMGLINKEEVLLPLDNPYGKITGTVKRKLSSRL
notes: as for B5
Q: How did the Km [9, 11] turn out when B11 was run?
A: 397 µM

Q: And the Km [9, 12]?
A: 400 ± 50 µM

B12: Arthrobacter globiformis uricase variant MedU_5E9, N33E/A35D/A83G/A145T/A148S/V195D/A204D/A213G/L220K/K244S/Y270H, SEQ ID NO: 164 (Arthrobacter globiformis; … (protein)
chain: MTATAETSTGTKVVLGQNQYGKAEVRLVKVTRETDRHEIQDLNVTSQLSGDFEAAHTAGDNAHVVATDTQKNTVYAFARDGFGTTEEFLLRLGKHFTEGFDWVTGGRWAAQQFFWDRINDHDHAFSRNKSEVRTAVLEISGSEQTIVSGIEGLTVLKSTGSEFHGFPRDKYTTLQETTDRILATDVSARWRYNTDEVDFDAVYDSVRGLLLKGFAETHSKALQQTMYEMGRAVIETHPEIDEISMSLPNKHHFLVDLQPFGQDNPNEVFHAADRPYGLIEATIQREGSRAD
notes: as for B6
Q: For B12, which Km [10] is on record?
A: 800 ± 100 µM

Q: And the kcat [10]?
A: 6.0 ± 0.4 s⁻¹
